Assay results from the nanobody polyreactivity screen of Harvey et al. (2022).

Assay: yeast display, Sf9 membrane polyspecificity reagent, FACS + sequencing; frameworks hold sequencing errors
How it was run: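 Nanobodies came from a synthetic yeast display library in Saccharomyces cerevisiae BJ5465, induced with galactose for 36–48 hours and stained for 1 hour at 4 °C with 10% biotinylated, detergent-solubilized Sf9 membrane reagent. Cells were enriched on streptavidin microbeads and then FACS-sorted, with low and high (top ~1%) gates set on anti-HA fluorescence for expression and streptavidin fluorescence for reagent binding. Each polyreactivity label reflects the gate a clone came from. Genes were amplified by colony PCR, sequenced by MiSeq 2 × 250 and filtered by CDR length.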

| Sequence | polyreactivity (PSR sort gate) |
| --- | --- |
| QVQLVESVGGLVQAGGSLRLSCASSGSIFEGSAMGRYRQAPGKEMELVASISSGGSTNYADSVKGRFTISRDNAKNTVYLQMNSLKPEDTAVYYCAAEWVWYKWEFEYWGQGTKVTVSS | high polyreactivity |
| QVQLVESVGGLVQAGGSLRLSCASSGSTFGFNAIGWYRKAPVKERELVAANTFSGGTTYYADSVKGRFTISRDNAKNTVYLQMNSLKPEDTAGYYCNAEWWYQYTGPFSPWGEDYWGQGTQVTVSS | low polyreactivity |
| QVQLVESVGGLVQAGGSLRLSCDASGRIFRRYAMGWYRQAPGKERELVAAISSSGDSTYYADSVKGRFTISRDNAKNTVYLQMNSLKPEDTAVYYCAAVTRRYVLSTFYYWGQGTQVTVSS | high polyreactivity |
| QVQLVESVGGLVQAGGSLRLSCDASGRTFRVYAMGWYRQAPGKERELVAAITSGDSTYYADSVKGRFTISRDNAKNTFYLQMNSLKPEDTAVYYCAVNTSRYWSGYWGQGTQVTVSS | high polyreactivity |
| QVQLVESVGGLVQAGGSLRLSCDASGSTFPKYAMGRSRQAPAKEIELVAGISWRGGSTYYADSVKGRFTISRDNAKNTVYLQMNSLKPEDTAVYYCNKYLYYSFQDDYWGQGTQVTVSS | high polyreactivity |
| QVQLVESVGGLVQAGGSLRLSCPASGFTFKYYAMGWYRQAPGKEREFVAAISRSGGSTTYADSVKGRFTISRDNAKNTVYLQMNSLKPEDTAVYYCAVAYYTAYTPRDGEYWGQGTQVTVSS | high polyreactivity |
| QVQLVESVGGLVQAGGSLRLSCPASGSIFYANAMGGYRQAPGKERELVATISTGGGRTYYADSVKGRFTISRDKAKNTVYLQMNSLKAEDTAVYYCNATRNYARVRYYYWGKGTQVTVSS | high polyreactivity |
| QVQLVESVGGLVQAGGSLRLSSAASGFTFVPYAMGWYRQAPGKERETNADSVKGRFTISRDNAKNTVYLQMNSLKPEDTAVYYCAADLGRGIYDYWGQGTQVTVSS | low polyreactivity |
| QVQLVESVGGLVQAGRSLRLSCAASGNTFLRYAMGWYRQAPGKERELVAAISRSGGSTYYADSVKGRFTISRDNAKNTVYLQMNSLKPEDTAVYYCAARRSSQPDKGYYYWGQGTQVTVSS | high polyreactivity |
| QVQLVESVGGLVQEGGSLRLSCAASGSNFQWYAMGWYRQAPGKERELVAAIRYSGDSTYYADSVKGRFTISRDNAKNTDYLQMNSLKPEDTAVYYCAAEATTRWLLYNYWGQGTQVTVSS | high polyreactivity |
| QVQLVESVGGLVQPGGSLRLSCAASGRTFGRYAKGWYRQAPGKERELVAGISRSGDSTHYADSLKGRFTISRDNAKYCVYLQMKSLKPEDTEVYYCNKETPTIGARKYEYWGQGTQVNVSS | low polyreactivity |
| QVQLVESVGGLVQSGGSLRLSCAASGFTFYRYGIGWYREAPGKERELVAAITSGGITYYADSVKGRFTISRDNAKNTVYLQLNSLKPEDTAVYYCNAVYPVAAIVRYDYWGQGTQVTVSS | high polyreactivity |
| QVQLVESVGGVVQAGGSLRLSCAASGSIFRWNAMGWYRQARGKEWELVAVNTWRGGRTYYADSVKGRFTFSRDNAKKTVYLQMNSLNPEYTSFSYCAKGRLVTTLFGHYATCEYDSWGHGTQVTVSS | high polyreactivity |
| QVQLVESVGVLVQAGARLRLSCAASGSIFRTNTMGSYRQAPVKERELVAAITAIGDSTYYGDSVKGRFTISRDNAKNTVYLQMNSLKPEDTAVYYCAAEKVSWGYHFYSSSDYWGQATQVTVSS | low polyreactivity |
| QVQLVESVGVLVQAGGSLRLSCAASVSIFDYNAMGWYRQAPGKERELVADITISDDSTYYADSVKGRFTISRDNAKNTVYLQMNSLKPEDTAVYYCAADIKYYWYYYYWAYAYDYWGQGTQVTVSS | high polyreactivity |
| QVQLVESVRGLVQAGGSLRLSCAASGFIFRSYAMGWYRQAPGKEREFVAAISRSGGRTYYADSVKGRFTISRDNAKNTVYLQMNCLKPEDTAVYYCAATVGGSYTFDYWGQGTQVTVSS | high polyreactivity |
| QVQLVESVVGLVQAGGILRLSCSASGRTFVHYTMGWYRQAPGKETELVAAISGTGTSTYYADSVKGRFTISRDNAKNTVYLQMNSLKPEDTAVYYCARDPYFGFHMGYPRRDYWGQGTHVTVSS | low polyreactivity |
| QVQLVESVVGLVQAGGSLRLRCAASGIIFSKYAMGWYIQEPGKERELVARISWRGGDTYYADSVKGRFTISRDNAKNTVYLKMNSMKQEDTSVYYFNARIWGRYFSYTRFDYWGQCTQVTVSS | high polyreactivity |
| QVQLVESVVGLVQAGGSLRLSCAASGITFNRNAMGWYIEAPGKERELVAAISSGGSTNYADSVKGRFTISRDNAKNTVYLQMNSLKPEDTAVYYCARAQYWYGKGYYYWGQGTQVTVSS | high polyreactivity |
| QVQLVESVVGLVQAGGSLRLSCAASGRIFIIYAMGWYIQAPGKEREFVAAITSSGGSTYYGDSVKGRFTISRDNAKNTVYLQMNSLKPEDSAVYYCAARVTKLRTSSLRGYWGQGTQVTVSS | high polyreactivity |
| QVQLVESVVGLVQAGGSLRLSCAASGRTFYRNGMGWYRQAPGKERELVAAISSRGGSTYYADSVKGRFTISRDNAKNTVYLQMNSLKPEDTAVYYCAAPRASGYYWGQGTQVTVSS | high polyreactivity |
| QVQLVESVVGLVQAGGSLRLSCAATGSIFRWYAMGWYRQAPGKERELVAAITWSASRTYYADSVKGRFTISRDNGKNTVYLQMNSLKPEDTAVYYCAADHDCPYAGYDSWGQGTQVTVSS | low polyreactivity |

| Sequence | polyreactivity (PSR sort gate) |
| --- | --- |
| QVQLVESVVGLVQAGGSLRLSCDASGRIFRYYAMGWYRQAPGKERELVARITSSGSTYYADSVKGRFTISRDNAKNTVYLQMNSLKPDDTAVYYCAADWYWGGIVDSWGQGTQVTVSS | high polyreactivity |
| QVQLVESVVGLVQAGGSLRLSSAASGRIFNQYGMGWYRQSPGKESELVAAIRSGDSTNYADSVKGRFTISRDNAKNTVYLQMNSLKPEDTAVYYCARDLPGDYAGFDYWGQGTQVTVSS | low polyreactivity |
| QVQLVESWGGLDQAGGSLRLSCAASGSTFYAYAMGWYRPAPGKERELVAAISSDGTNYADSVKGRFTISRDNAKNTVYLQMNSLKPEDTAVYYCAADLLLYSSQDNDFWGQGTQVTVSS | low polyreactivity |
| QVQLVESWGGLFQAGGTLRLSCAASGRTFIGYDMEWYRQAPGKERELVATISWNGADTYYADSVKGRYTISRDNAKNTVYLKMNSLKPEDTEVYYCAAERENGDHYRYYYWGQGTQVTVSS | low polyreactivity |
| QVQLVESWGGLVQAGGSLRLSCAASGFIFSRYAMGWYRQAPGKERELVAAISSRGGSTYYADSVKGRFTISRDNAKNTVYLQMNSLKPEDTAVYYCAKSSPTPHYYWGQGTQVTVSS | high polyreactivity |
| QVQLVESWGGLVQAGGSLRLSCAASGFTFLNYAMGWYRQAPGKERELVAAISFSTGRTYYADSVKGRFTISRDNAKNTDYLQMNSLKPEDTAVYYGAAGYWPGYSLTYRGGYWGQGTQVTVSS | high polyreactivity |
| QVQLVESWGGLVQAGGSLRLSCAASGFTLTPYAMGWYRQAPGKERELVAASRWSGGSTYYADSVKGRFTISRDNAKNTVYLQMNSLKPEDTAVYYCAARYAYRPVNGYKYWGQGTQVTVSS | high polyreactivity |
| QVQLVESWGGLVQAGGSLRLSCAASGGTFGNNDMGWYRQAPGKERELVAAIRSAGTTYYADSVKGRFTISRDNAKNTVYLQMNSLKPEDTAVYYCNADTTGYWSYGFQYYGEDYWGQGTQVTVSS | low polyreactivity |
| QVQLVESWGGLVQAGGSLRLSCAASGINFWVYAMGWYRQAPGQERELVAAISRRGGSTSYADSVKGRFTISRDNAKNTVYLQMKSLKPEDTAVYFCAATTYTHPYGYWGQGTQVTVSS | high polyreactivity |
| QVQLVESWGGLVQAGGSLRLSCAASGITFFFYAMGLYRLAPGKERELVASITWEDGSTYYADSVKGRFTISRDNANNTVYLQKNSLKPEDTAVYYCAADFEAGGYSLDYWGQGTQVTVSS | low polyreactivity |
| QVQLVESWGGLVQAGGSLRLSCAASGITFFTYAMGWYRQAPGKERELVAGISKTGGRSYYADSVKGRFTISRDNSKNTVYLQMNSLKPDDTAVYFCAAYFRSDYGYWGQGNQVTVSS | high polyreactivity |
| QVQLVESWGGLVQAGGSLRLSCAASGITFLRNTMGWYRQAPGKERELVAAISRGGSTYYADSVKGRFTISRDNAKNTVFLQMKSLKPEDTAVYYCNAPSYVQATDYDYWGQGTQVTVSS | high polyreactivity |
| QVQLVESWGGLVQAGGSLRLSCAASGITFPINTMGWYRQAPGKERELVAGIDWTGGSTYYADSVKGRFTISRDNAKNTVYLQMNSLKPEDTAVYYCAKRSYTGYEYWGQGTQVTVSS | low polyreactivity |
| QVQLVESWGGLVQAGGSLRLSCAASGNTIIRYAMGWYSQAPGKERELVAAISRSGGRTYYADSVKGRFTISRDNAKNTVYLQMNSLKPEDTAVYYCAAKIYIPRGYDYWGQGTQVTVSS | high polyreactivity |
| QVQLVESWGGLVQAGGSLRLSCAASGRIFGANARGWYRQAPGKERELVATITYGGTSTYYADSVKGRFTISRDNAKNSVYLQLNSLKPEYTADYYCAAASTYPLPYDFWGQGTQVTVSS | low polyreactivity |
| QVQLVESWGGLVQAGGSLRLSCAASGRIFYKYAMGWYRQAPGKERELVAAISYSGGSTYYADSVKGRFTISRDNAKITVYLQMKSLKQEDTAVDDCNAKPPYGVRSWGDYWGQGTKVTVSS | low polyreactivity |
| QVQLVESWGGLVQAGGSLRLSCAASGRTIEQYAMGWYRQAPGKERELVAAISGSGGSTFYADSVKGRFTISRDNAKNTVYLQMNSLKPEDTAVYYCNAPGDGYLYDHTYDYWGQGTQVTVSS | low polyreactivity |
| QVQLVESWGGLVQAGGSLRLSCAASGSIFDFNGMGCYRQAPGKERELVAAISGGGGSTYYADSVKGRFTISRDNAKNTVYLQMNSLKPEDTAVYYCAAAYSTYRFIYEYWGQATQVTVSS | high polyreactivity |
| QVQLVESWGGLVQAGGSLRLSCAASGSIFRRYAMGWYRQAPGKERELVAAISIGGRTYYADSVKGRFTISRDNAKNTVYFQMNSLKPEDTAVYYCAARESRSWGGGSWGQGTQVTVSS | high polyreactivity |
| QVQLVESWGGLVQAGGSLRLSCAASGSIFYVNDMGWYRQAPGKERELVAAISSTGSTKYADSVKGRFTISRDNAKNTVYLQMNSLKPEDTAVSYCAKEPGHRFEFDYWGQGTQVTVSS | low polyreactivity |
| QVQLVESWGGLVQAGGSLRLSCAASGSTFAQNTMGWYRQAPGKERELVATISDGGGSTYYADSVKGRFTISRDNAKNTVYLQMNSLKPEDTAVYYCNTDRFWPSYYWGQGTQVTVSS | low polyreactivity |
